Where a chain is given by its changes, count along the chain named.
B1: ヒト型化#23-57-137-1抗体 (H鎖バージョン"a"、L鎖バージョン"j") (antibody, IgG1, V domains shown)
VH: QVQLVESGGGVVQPGRSLRLSCAASGFTFSSYGMSWVRQAPGKGLEWVATISSGGSYTYYPDSVKGRFTISRDNSKNTLYLQMNSLRAEDTAVYYCARQTTMTYFAYWGQGTLVTVSS
VL: QLVLTQSPSASASLGASVKLTCTLSSQHSTYTIEWYQQQPEKGPKYLMDLKQDGSHSTGDGIPDRFSGSSSGAERYLTISSLQSEDEADYYCGVGDTIKEQFVYVFGGGTKLTVLG
notes: Human Cγ1 (IgG1) and human lambda C region; Expressed in COS-7 cells; also called hMBC1HcDNA/pCOS1 + hMBC1Ljλ/pCOS1
B2: ヒト型化#23-57-137-1抗体 (H鎖バージョン"a"、L鎖バージョン"o") (antibody, IgG1, V domains shown)
VH: B1 VH
VL: B1 VL with K45R, L47V
notes: Human Cγ1 (IgG1) and human lambda C region; Expressed in COS-7 cells; also called hMBC1HcDNA/pCOS1 + hMBC1Loλ/pCOS1
B3: ヒト型化#23-57-137-1抗体 (H鎖バージョン"a"、L鎖バージョン"m") (antibody, IgG1, V domains shown)
VH: B1 VH
VL: B1 VL with K45R
notes: Human Cγ1 (IgG1) and human lambda C region; Expressed in COS-7 cells; also called hMBC1HcDNA/pCOS1 + hMBC1Lmλ/pCOS1
B4: ヒト型化#23-57-137-1抗体 (H鎖バージョン"a"、L鎖バージョン"l") (antibody, IgG1, V domains shown)
VH: B1 VH
VL: B1 VL with L47V
notes: Human Cγ1 (IgG1) and human lambda C region; Expressed in COS-7 cells; also called hMBC1HcDNA/pCOS1 + hMBC1Llλ/pCOS1
B5: ヒト型化#23-57-137-1抗体 (H鎖バージョン"a"、L鎖バージョン"t") (antibody, IgG1, V domains shown)
VH: B1 VH
VL: B1 VL with K45R, L47V, Y91I
notes: Human Cγ1 (IgG1) and human lambda C region; Expressed in COS-7 cells; also called hMBC1HcDNA/pCOS1 + hMBC1Ltλ/pCOS1
B6: ヒト型化H鎖バージョン"a"とキメラL鎖を組み合わせた抗体 (antibody, V domains shown)
VH: B1 VH
VL: QLVLTQSSSASFSLGASAKLTCTLSSQHSTYTIEWYQQQPLKPPKYVMDLKQDGSHSTGDGIPDRFSGSSSGADRYLSISNIQPEDEAMYICGVGDTIKEQFVYVFGGGTKVTVLG
notes: Humanised H chain version a with human Cγ1; The chimeric L chain has the mouse V region
B7: ヒト型化#23-57-137-1抗体 (H鎖バージョン"a"、L鎖バージョン"q") (antibody, IgG1, V domains shown)
VH: B1 VH
VL: B1 VL with Y91I
notes: Human Cγ1 (IgG1) and human lambda C region; Expressed in COS-7 cells for the ELISA; also made in CHO cells; also called hMBC(q); hMBC1HcDNA + hMBC1Lqλ

Target: T1, ヒトPTHrP(1-34) (human)
T1 construct: Synthetic peptide, bought (Peninsula; ペプチド研究所); Coated on the plate in the ELISA; also called human parathyroid hormone related peptide (1-34)
Assay: ELISA on plate-coated human PTHrP(1-34)

Binder	binding result
B1	binds
B2	binds
B3	binds
B4	binds
B5	binds
B6	binds
B7	binds

From patent JP2005320353A (dated 2005)
